Laboratory results reported in article PMC3098852.

Assays:
[1] = molecular target: HIV-1 NefSF2 wild type, full length (1-210), C210A (HIV-1 SF2) (UniProt P03407); test: ITC
[2] = molecular target: HIV-1 NefSF2 (Δ1-27), C210A (HIV-1 SF2) (UniProt P03407); test: ITC
[3] = molecular target: HIV-1 NefSF2 (Δ1-58), C210A (HIV-1 SF2) (UniProt P03407); test: ITC
[4] = molecular target: HIV-1 NefSF2 (Δ1-44), C210A (HIV-1 SF2) (UniProt P03407); test: ITC
[5] = molecular target: fluorescence-labelled NI3-3 (human) (UniProt P01730); test: other fluorescence titration
[6] = molecular target: GST-NI3-9, Hck-SH3 (VSWSPD) - polyGly linker - CD4 cytoplasmic tail (human) (UniProt P08631); test: SPR; GST-NI3-9 held on a CM5 chip via an anti-GST antibody; hexa-histidine tagged Nef 400-1000 nM flowed at 5 µl/min; 10 mM HEPES pH 8.0, 150 mM NaCl, 0.005% IGEPAL; 25 °C
[7] = molecular target: HIV-1 NefSF2 mutant (P76A, P79A, R81A), C210A (HIV-1 SF2) (UniProt P03407); test: ITC; Nef (40 to 50 µM) in the cell, inhibitor protein (400 to 500 µM) in the syringe; 10 mM Tris/HCl pH 8.0, 100 mM NaCl; 25 °C
[8] = molecular target: HIV-1 NefSF2 wild type, full length (1-210), C210A (HIV-1 SF2) (UniProt P03407); test: ITC; Nef (40 to 50 µM) in the cell, GST-fused inhibitor protein (400 to 500 µM) in the syringe; 10 mM Tris/HCl pH 8.0, 100 mM NaCl; 15 °C

Row | Substance | Kd [1] [nM] | dH [1] [kcal/mol] | stoichiometry N [1] | other results
1 | GST-NI3-1, CD4 cytoplasmic tail (37 residues) - five residue linker - Hck-SH3 (VSWSPD) (from UniProt P01730 419-458; P08631-1 78-138) (designed binder) | 84 | -8.51 | 1.09 | 
2 | GST-NI3-13, Hck-SH3 (VSWSPD) - linker - CD4 cytoplasmic tail truncated before the cysteines (from UniProt P08631-1 79-138; P01730 419-458) (designed binder) | 41 | -7.04 | 0.98 | Kd [2]: 51 nM; dH [2]: -12.2 kcal/mol; stoichiometry N [2]: 1; Kd [3]: 149 nM; dH [3]: -13.8 kcal/mol; stoichiometry N [3]: 0.98; Kd [4]: 96 nM; dH [4]: -16.1 kcal/mol; stoichiometry N [4]: 1.06
3 | HIV-1 NefSF2 wild type, full length (1-210), C210A (from UniProt P03407) (natural protein) |  |  |  | Kd [5]: 37 nM
4 | GST-NI3-5, wild type CD4 sequence attached with a glycine-serine-rich linker of 12 residues to Hck-SH3 (VSWSPD) (from UniProt P01730 419-458; P08631-1 78-138) (designed binder) | 64 | -8.22 | 1.06 | 
5 | GST-NI3-10, Hck-SH3 (VSWSPD) - linker - CD4 cytoplasmic tail with the two cysteines mutated (from UniProt P08631-1 78-138; P01730 419-458) (designed binder) | 27 | -11.5 | 1.03 | 
6 | HIV-1 NefSF2 (Δ1-44), C210A (from UniProt P03407 45-210) (domain or fragment) |  |  |  | Kd [6]: 28 nM
7 | GST-NI3-8, CD4 cytoplasmic tail shortened to 23 residues fused N-terminally to Hck-SH3 (VSWSPD) (from UniProt P01730 419-458; P08631-1 78-138) (designed binder) | 107 | -8.2 | 0.93 | 
8 | GST-NI3-4, CD4 cytoplasmic tail (dileucine LL to AA) fused to Hck-SH3 (VSWSPD) (from UniProt P01730 419-458; P08631-1 78-138) (designed binder) | 544 | -8.55 | 0.97 | 
9 | GST-NI3-3, CD4 cytoplasmic tail (CQC to SQS) fused to Hck-SH3 (VSWSPD) (from UniProt P01730 419-458; P08631-1 78-138) (designed binder) | 88 | -8.64 | 1.12 | 
10 | GST-NI3-9, Hck-SH3 (VSWSPD) - polyGly linker - CD4 cytoplasmic tail (from UniProt P08631-1;P01730) (designed binder) |  |  |  | Kd [7]: 1170 nM; dH [7]: -4.1 kcal/mol; stoichiometry N [7]: 0.85; Kd [8]: 26 nM; dH [8]: -11.4 kcal/mol; stoichiometry N [8]: 0.97
